{
  "source": "patent US20160279215A1",
  "about": "“NOVEL PEPTIDES AND COMBINATION OF PEPTIDES FOR USE IN IMMUNOTHERAPY AGAINST VARIOUS TUMORS” (immatics biotechnologies GmbH, priority 2015, published 2016)",
  "data": [
    {"biological_target": "T1, HLA-A*02:01 (Homo sapiens, UniProt P04439, D140Y/D185E/D98H/E176V/E277Q/G131W/G231S/I119V/I121R/I166T/I218V/L300P/L318F/N151K/N90K/P208A/P217A/Q86G/Q94H/R138H/R169H/T345S)", "T1 construct": "made in house", "assay": "MHC binding assay: UV-ligand exchange with β2m ELISA (peptide exchange yield)", "details": "binding to HLA-A*02:01 evaluated by peptide exchange yield (UV-ligand exchange, β2m ELISA)", "procedure,_shortened": "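UV-exchange pMHC monomers, 100-fold diluted → streptavidin capture 1 h 37 °C → HRP anti-β2m 2 ug/ml 1 h 37 °C → TMB, A450. Yield from HLA-A*02:01/MLA-001 monomer standard curve, 15-500 ng/ml. Only stably bound peptides keep β2m-containing complexes intact.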", "values": [
      {"molecule": "160 (TLQEWLTEV; listed as Homo sapiens) [compound 160]", "Peptide exchange": "+++ (≧50 = +++)"}
    ]},
    {"biological_target": "T2, HLA-A*02:01 (human)", "T2 construct": "MHC monomers captured on streptavidin plates; the UV-sensitive peptide is cleaved and exchanged with the test peptide; also called peptide-receptive MHC molecules; MHC class I", "assay": "UV ligand-exchange ELISA (anti-b2m); +++ = exchange yield >=50", "details": "not given", "description": "Candidate peptides for T cell based therapies according to the present invention were further tested for their MHC binding capacity (affinity). The individual peptide-MHC complexes were produced by UV-ligand exchange, where a UV-sensitive peptide is cleaved upon UV-irradiation, and exchanged with the peptide of interest as analyzed. Only peptide candidates that can effectively bind and stabilize the peptide-receptive MHC molecules prevent dissociation of the MHC complexes. To determine the yield of the exchange reaction, an ELISA was performed based on the detection of the light chain (β2m) of stabilized MHC complexes. The assay was performed as generally described in Rodenko et al. (Rodenko et al., 2006).\n96 well MAXISorp plates (NUNC) were coated over night with 2 ug/ml streptavidin in PBS at room temperature, washed 4× and blocked for 1 h at 37° C. in 2% BSA containing blocking buffer. Refolded HLA-A*02:01/MLA-001 monomers served as standards, covering the range of 15-500 ng/ml. Peptide-MHC monomers of the UV-exchange reaction were diluted 100 fold in blocking buffer. Samples were incubated for 1 h at 37° C., washed four times, incubated with 2 ug/ml HRP conjugated anti-β2m for 1 h at 37° C., washed again and detected with TMB solution that is stopped with […]. Absorption was measured at 450 nm. Candidate peptides that show a high exchange yield (preferably higher than 50%, most preferred higher than 75%) are generally preferred for a generation and production of antibodies or fragments thereof, and/or T cell receptors or fragments thereof, as they show sufficient avidity to the MHC molecules and prevent dissociation of the MHC complexes.", "units": {"peptide exchange yield": "%"}, "values": [
      {"molecule": "RLLDPKTIFL", "peptide exchange yield": "50 to 75"},
      {"molecule": "AQLEGKLVSI", "peptide exchange yield": "50 to 75"},
      {"molecule": "ILAQDVAQL", "peptide exchange yield": "50 to 75"},
      {"molecule": "RLHDENILL", "peptide exchange yield": "50 to 75"},
      {"molecule": "SIIDTELKV", "peptide exchange yield": "50 to 75"},
      {"molecule": "AALEVLAEV", "peptide exchange yield": "50 to 75"},
      {"molecule": "QLREAFEQL", "peptide exchange yield": "50 to 75"},
      {"molecule": "QLYGSAITL", "peptide exchange yield": "50 to 75"},
      {"molecule": "SLYPHFTLL", "peptide exchange yield": "50 to 75"},
      {"molecule": "ALLNNVIEV", "peptide exchange yield": "50 to 75"},
      {"molecule": "YTFSGDVQL (also called MMP1-003)", "peptide exchange yield": "50 to 75"},
      {"molecule": "LLWDAPAKC", "peptide exchange yield": "50 to 75"},
      {"molecule": "IILENIQSL", "peptide exchange yield": "50 to 75"},
      {"molecule": "FLDSQITTV", "peptide exchange yield": "50 to 75"},
      {"molecule": "MLWESIMRV", "peptide exchange yield": "50 to 75"},
      {"molecule": "SLADLSLLL", "peptide exchange yield": "50 to 75"},
      {"molecule": "FLISQTPLL", "peptide exchange yield": "50 to 75"},
      {"molecule": "ALEEKLENV", "peptide exchange yield": "50 to 75"},
      {"molecule": "GLLSALENV", "peptide exchange yield": "50 to 75"},
      {"molecule": "YLILSSHQL", "peptide exchange yield": "50 to 75"},
      {"molecule": "VLLDMVHSL", "peptide exchange yield": "50 to 75"},
      {"molecule": "KLVELEHTL (also called CT83-001)", "peptide exchange yield": "50 to 75"},
      {"molecule": "YLDPLWHQL", "peptide exchange yield": "50 to 75"},
      {"molecule": "QLGPVPVTI", "peptide exchange yield": "50 to 75"},
      {"molecule": "TLQEWLTEV", "peptide exchange yield": "50 to 75"},
      {"molecule": "GLLGNLLTSL", "peptide exchange yield": "50 to 75"},
      {"molecule": "MLIIRVPSV", "peptide exchange yield": "50 to 75"},
      {"molecule": "SLLDYEVSI", "peptide exchange yield": "50 to 75"},
      {"molecule": "LLGDSSFFL", "peptide exchange yield": "50 to 75"},
      {"molecule": "LVVDEGSLVSV (also called …)", "peptide exchange yield": "50 to 75"},
      {"molecule": "VIFEGEPMYL (also called HORMAD1-001)", "peptide exchange yield": "50 to 75"},
      {"molecule": "ALADLSVAV", "peptide exchange yield": "50 to 75"},
      {"molecule": "RLIDIYKNV", "peptide exchange yield": "50 to 75"},
      {"molecule": "SLLDLVQSL", "peptide exchange yield": "50 to 75"},
      {"molecule": "ALINVLNAL", "peptide exchange yield": "50 to 75"},
      {"molecule": "TLGEIIKGV", "peptide exchange yield": "50 to 75"},
      {"molecule": "RLYEEEIRI", "peptide exchange yield": "50 to 75"},
      {"molecule": "LLWAPTAQA", "peptide exchange yield": "50 to 75"},
      {"molecule": "GLQDGFQITV", "peptide exchange yield": "50 to 75"},
      {"molecule": "ALSYILPYL", "peptide exchange yield": "50 to 75"},
      {"molecule": "SLSTELFKV", "peptide exchange yield": "50 to 75"},
      {"molecule": "AAIEIFEKV", "peptide exchange yield": "50 to 75"},
      {"molecule": "ALFHMNILL", "peptide exchange yield": "50 to 75"},
      {"molecule": "VIIQNLPAL", "peptide exchange yield": "50 to 75"},
      {"molecule": "IMPTFDLTKV", "peptide exchange yield": "50 to 75"},
      {"molecule": "YLMDDFSSL (also called COL6A3-015)", "peptide exchange yield": "50 to 75"},
      {"molecule": "SEWGSPHAAVP", "peptide exchange yield": "50 to 75"},
      {"molecule": "KLFETVEEL", "peptide exchange yield": "50 to 75"},
      {"molecule": "GLAGDNIYL", "peptide exchange yield": "50 to 75"},
      {"molecule": "LLTTVLINA", "peptide exchange yield": "50 to 75"},
      {"molecule": "ILAVDGVLSV", "peptide exchange yield": "50 to 75"},
      {"molecule": "ALFETLIQL", "peptide exchange yield": "50 to 75"},
      {"molecule": "LMYPYIYHV", "peptide exchange yield": "50 to 75"}
    ]}
  ]
}
